The numbers were not newly measured in US8217152B2, “Process for the purification of IL-18 binding protein” (Ares Trading S.A., priority 2005, dated 2012), which cites them from elsewhere.

One data set deals with IL-18 induction of IFN-γ. The following applies: in vitro.
The target of the next data set is T1, IL-18 (Homo sapiens, UniProt Q14116).
T1 sequence (Q14116 37-193): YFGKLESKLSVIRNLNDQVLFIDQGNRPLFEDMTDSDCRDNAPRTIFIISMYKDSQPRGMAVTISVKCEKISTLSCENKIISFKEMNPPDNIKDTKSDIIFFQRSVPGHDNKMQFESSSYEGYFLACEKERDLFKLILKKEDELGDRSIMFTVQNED
The note with it: Kim et al. 2000; read-out: dissociation constant (Kd) for IL-18.

Data set [1] deals with IL-18 activation of NF-κB. The following applies: in vitro.
In another data set the test system is induction of IFN-γ. The following applies: mice injected with LPS.

B1: IL-18BP: naturally occurring soluble protein that binds IL-18 (protein, UniProt O95998 31-194, looked up)
Interleukin-18-binding protein: TPVSQTTTAATASVRSTKDPCPSQPPVFPAAKQCPALEVTWPEVEVPLNGTLSLSCVACSRFPNFSILYWLGNGSFIEHLPGRLWEGSTSRERGSTGTQLCKALVLEQLTPALHSTNFSCVLVDPEQVVQRHVVLAQLWAGLRATLPPTQEALPSSHSSPQQQG
What is called Kd is the equilibrium constant for the complex coming apart. As for B1, the “effect on IL-18 induction of IFN-γ” value in the data set with IL-18 induction of IFN-γ was “abolishes”. For the same molecule, the Kd in the data set with IL-18 is 400 pM. In data set [1], the “effect on IL-18 activation of NF-κB” value was “abolishes”. Further, the “effect on induction of IFN-γ” value in the data set with induction of IFN-γ is listed as “inhibits”.
